Data: a protein production outcome set (Wang et al. 2014)

Experiment: label from the status in PepcDB records

## MRIGHGFDVHKFGENGSGPLIIGGVRIPYEKGLLAHSDGDVALHAATDALLGAAALGDIGKLFPDTDPAFKGADSRGLLREAYRRILAKGYKLGNLDITIIAQAPKMAPHIPQMRVNLAEDLQCHMDDINVKATTTEQLGFTGRGEGIACEAVVLLVNVEQG
  protein production: not failed

## MSVPTTMFRLTGRDYPPAKLSHASLIIIDAQKEYLSGPLKLSGMDEAVANIARLLDAARKSGRPIIHVRHLGTVGGRFDPQGPAGQFIPGLEPLEGEIVIEKRMPNAFKNTKLHETLQELGHLDLIVCGFMSHSSVSTTVRRAKDYGYRCTLVEDASATRDLAFKDGVIPAAQIHQCEMAVMADNFACVAPTASLI
  protein production: not failed

## MSASIRDAGVADLPGILAIYNDAVGNTTAIWNETPVDLANRQAWFDTRARQGYPILVASDAAGEVLGYASYGDWRPFEGFRGTVEHSVYVRDDQRGKGLGVQLLQALIERARAQGLHVMVAAIESGNAASIGLHRRLGFEISGQMPQVGQKFGRWLDLTFMQLNLDPTRSAP
  protein production: not failed

## MSEDLMDLSPEEGIERFLRHREPSVRESTMRNAKTRLRFFNEWCEERDIENLNNLTGRDLADFVAWRRGDIAALTLQKQLSTIREALRYWADIEGVDDGLAEKVHAPELPDGAESREVHLSADRAHQILDFLHDYRYASRDHVVFLILWKTAMRRSALRSLDVDDLRPDDYALVLEHRIDEGTKLKNGEDGERWVYLGPSDYQVVDDYLDNPDRYERTDDYGRKPLITSQHGRPAGDTIYKWVNKLTQPCVLNGCPHDADPSDPSTCEALGSRAAHSKCPSSRSPHGLRRGSITYHLNSDVSPEIVSERCDVSLEVLYEHYDVRTNQEKMAVRKKQLERI
  protein production: failed

## MITTTIFPGRYVQGAGAINILEEELSRFGERAFVVIDDFVDKNVLGENFFSSFTKVRVNKQIFGGECSDEEIERLSGLVEEETDVVVGIGGGKTLDTAKAVAYKLKKPVVIVPTIASTDAPCSALSVIYTPNGEFKRYLFLPRNPDVVLVDTEIVAKAPARFLVAGMGDALATWFEAESCKQKYAPNMTGRLGSMTAYALARLCYETLLEYGVLAKRSVEEKSVTPALEKIVEANTLLSGLGFESGGLAAAHAIHNGLTVLENTHKYLHGEKVAIGVLASLFLTDKPRKMIEEVYSFCEEVGLPTTLAEIGLDGVSDEDLMKVAEKACDKNETIHNEPQPVTSKDVFFALKAADRYGRMRKNLT
  protein production: not failed

## MPNNHLTAAAPAQGREAIASPMERFSQAMVAWAEKWFPDAYVFVVVACAVVALGAILHGGDPLAVSKAFGEGFWSIIPLTMQMAMVAITGYVLALSPPVARLLRALARVPSTPRGAVVFIGTLSILLSLVNWGLSLIFSGLLVREMARRNDLRLDYRAAGAAGYLGLGCGFTLGMSSSAAQLQATPASIPASLMPITGVIGFSETILTWQNLVVVILVTVVSGLVCYFTAPSPERSLTAQDLGVDLTEPEAQAAQRQRPGDYLEFSPWLTVAVVGLASGWLYLTFRSGNPFITMSQLNTYNFVFLLLGLLLHWRPRSFLESFGRAMPSIGGVMLQFPFYGGIGYVLTKVANVQGHTLSDAIAHWFVSLAHDSSVFSILVSIYSAFLGFFIPSAGGKWVIEAPYIMDAANQIQAHLGWTVMVYNIAETLPNFINPFWMLPLLGILRLKSKDLVGYTAMQFLVHFPIVVAAGAILMHTFSYVPPVIPGQ
  protein production: failed

## MNALKGRDILALGFMTFALFVGAGNIIFPPIVGLQSGPHVWLAALGFLITAVGLPVITVIALAKVGGSVDALSHPIGRYAGGLLAAVCYLAVGPLFAIPRTATVSFEVGVVPLLGESGTALFVYSLAYFLLALAISLYPGRLLDTVGRFLAPLKILALAILGVAAFLWPAGPIGTAQPEYTQAAFSQGFVNGYLTMDTLAALVFGIVIVNAIRSRGVQSPRLITRYAIVAGLIAGVGLVLVYVSLFRLGAGSHAIAADASNGAAVLHAYVQHTFGSLGSSFLAGLIALACLVTAVGLTCACAEYFCQRLPLSYRSLVIILAGFSFIVSNLGLTKLIQVSIPVLTAIYPPCIVLVALSFCIGLWHSATRILAPVMLVSLAFGVLDALKAAGLGQDFPQWLLHLPLAEQGLAWLIPSVATLAACSLVDRLLGKPAQVAA
  protein production: failed

## MVYDNIKREIIGMLKRMPNKQADWDNDLLPTLKAMFNPKSVSNAKSQLISEGVISQEIVDGKKIITLIKDPYELQAPNVFDEEMFLAYYTDKLKEYFKHKLSTEGPEWDIFDVKEFIMHFPESGDLNDKLIEHPYEVRKSITNVYIEAYEELFNETPNVEFIHIRNPIDCRISLSELSSAHKGKLVEFRAMILQATKLKLRYAKGFYYCPKCGATKTLDLGFWDKPKEVGKSLTCPADGCDCKGLIFDEDLSGKVDFQEIKVQTPLQESIYANKHSTTVFYEFNKPKKAVYSGYVKIVGVPIVKENKNGSVGELYIHAFYIEKDDEDIEEIAKNLNEKDLELINRIAKDKNVIQKLSDYAFREVTGYDMIKRAVLLQLVSSGTNIDMRTSIHILMISDPGVGKSTLMESLIQKFPFVKKVYAVTSSGPGLVGSVVREKAEFGDSWVLKAGVLTEADGGVVCIDEFSRNKEVYDYLLGVMEQQKIEINKAGVIDAVLPARVAILAACNPRFGRFNPDLTVWEQINLPKELLDRFDLIFVIKDKIDKKKDEDIADFSIDNYNSKVRERKGKSSGKKFVINGVELNDELLLKYVLYARQIEPEISDEARKIIKEYYVSVRKMSEAKGTFGISARQLGSIIRLAVAHAKLRLSEVVKAVDAEEAIRLVDTCLKQIAYDPESGSIDIDKIAGTPKSKRDKVEKVLNIIKEISNSRDDGLAPEEEIYERAERAGLSEKEVEDAINYLKRVGDIYSPKSGYWQLMS
  protein production: failed

## MREEELNTEKVVAAIANPVENEVRKVWEDVVEKIEQRVAVIEQASHKLLQNKVSEEILSKAKVEAHKLAGSLGMFGSDEGSQIAQEIESLLDNGKKLKASGGKHLGQVVEALHQELENLKSGLEHHHHHH
  protein production: not failed

## MSSVFPKVAVLLAAYNGMAWIEAQLDSILKQANVCVSVFISVDTSSDGTEAWCADYAQHHVNITLLPPAGQFGGASRNFFRLIQDVDFSSFDYVAFSDQDDIWYQDKLERALSTLMSGNHDAYSSNVVAFWPDGQRILLDKAQPQVQWDHLFEAAGPGCTYVMNRPLADAFKSSLIAQWDVAQNVSLHDWYCYAFARSHGFRWFIDPAPGMDYRQHANNQVGANTGLASLITRLKKIADGWWAGQVLLIGRLTGGSETLFAGKITGTRWMFLRLAFMAGRCRRRPRDKIFFIIACLAAMLNTPEQRNNR
  protein production: failed

## AYPGFELDIDLALPGRGVTALFGHSGSGKSTCLRCIAGLEKAAEGEVTINGETWQDSRRNLFVAPHRRALGYVFQDANLFRHLTVRRNLAFGLKRIAAAERRVELEQACALLGIEHLLERMPERLSGGEQQRVGIARALLTSPRLLLMDEPLASLDLKRKGEILPYLERLHEELDIPVLYVSHSPDEVARLADHLVLLENGKVRASGPIGETLARVDLPLALDDDAGVVIEGTVSDHDPAYGLLTLVLPGSALQMRVAHAPLAPGKRLRFKVQARDVSLNLRDDAQSSILNRLPVRVLELVDTDTAAHVLVRLDAGGNPLLARITRYSRDQLQLR
  protein production: failed

## MIREFFQKYFIDPIKYNTGYNPVNTLVYAIILGIATLLVYKVLKRLKIEINNAFFRALIPYMIFGAFTRALTDAGVFPRTYLTVSPGIYFLVFVIAFSALLVSHKFAKDWRGVFLWFGWGLVMVDLAAMSANISKINFDFAVLKYFIPFLILAELVVFLLSKKVSLVRENSYLFYAHFYDATTTFVGVDFMGYWEQHVLPRLLIGLTGTAAVMYVLKFIILFAAVWLLKELEKEGEEKELLDFIKMVIFILGFAPGTRNLLRMLMGV
  protein production: failed

## MDKLDAMQVYVAVVDAHSFARAAEVLGQPRSTVSRVVKELEAWLGAQLLQRTTRKLSVTAEGRRYYEECKRLLAEMAAMEASFPGRSAQPAGRFKVGMPQSLARHCILPRIGEFLQQYPDLELILCSSDNVEDIIQEGFDCVIRTGRIEDSTTLVARPLARYRWMVLASPAWLAAHGRPQSIDELHQHRAVGYLNHRTGRTIDWLFSLDEGDCAIRMRETLVVDDTDAYIQAGIQGLGLIRVASYLAQPYLQSGALVACLEQAASDLPLSLVYPQNRYLPPAVRAFYDWSRRVLQPPHSEA
  protein production: failed

## MSVEKKVNDLLQKMTIEEKVYQLTSILIQDILENDKFSPQKAKEKIPHGIGQITRLAGASNLSPQEAAKTANEIQKFLIENTRLGIPAMIHEESCSGFMAKGATVFPQSIGVACTFDNEIVEELAKVIRTQMKAVGAHQALAPLIDVARDARWGRVEETFGEDPYLVANMAVSYVKGLQGDDIKKGIVATGKHFVGYAMSEGGMNWAPVHIPERELREVYLYPFEVAVKVAGLKSIMPAYHEIDGIPCHANRKLLTDIARNEWGFDGIYVSDYSGVRNLLDYHKSVKTYEEAAALSLWAGLDIELPKIECFTEEFIKALKEGKFDMTLVDAAVKRVLEMKFRLGLFDNPYIKTDGIVELFDNKEQRQLSRRVAQESMVLLKNDNFLPLSKDSKKIAVIGPNANSVRNLLGDYSYPAHIATLEMFFIKEDKGVGNEEEFVRNVINMKSIFEAIKDKVSSNTEVVYAKGCDVNSQDRSGFEEAKKAAADADAVILVVGDKAGLRLDCTSGESRDRASLRLPGVQEDLVKEIVSVNPNTVVVLVNGRPVALDWIMENVKAVLEAWFPGEEGANAVADVLFGDYNPGGKLAISFPRDVGQVPVYYGHKPSGGKSCWHGDYVEMSTKPLLPFGYGLSYTTFEYKNFAIEKEKIGMDESIKISVEIENTGKYEGDEIVQLYTRKEEYLVTRPVKELKGYKRVHLKPGEKKKVVFELYPDLFAFYDYDMNRVVTPGVVEVMIGASSEDIKFTGTFEIVGSKKDAKELKHYFSKVWCE
  protein production: failed

## MVQEEKAMEAINDALRALRKRHLLEEGAHAPAISALSKPLISQGSEWKEKTEKLETELQQCYKAQSRLSEQLVIEVAESRTSKAILQEKELLINDLQKELTQRREDCTRLQEELEEKTKTVDVLIAENLEIRSQLEEMTSRVQKAETENKMLIDRWMLQKMQDAERLNEANDLYEEMLAKLKANGLETLARQQVDGIVRRNEDGTDHFVESTIPSTCANRIHAHEGGCGSIVFEYNSGTLFTGGQDRAVKMWDTNSGTLIKSLYGSLGNILDMAVTHDNKSVIAATSSNNLFVWDVSSGRVRHTLTGHTDKVCAVDVSKFSSRHVVSAAYDRTIKLWDLHKGYCTNTVLFTSNCNAICLSIDGLTVFSGHMDGNLRLWDIQTGKLLSEVAGHSSAVTSVSLSRNGNRILTSGRDNVHNVFDTRTLEICGTLRASGNRLASNWSRSCISPDDDYVAAGSADGSVHVWSLSKGNIVSILKEQTSPILCCSWSGIGKPLASADKNGYVCTWT
  protein production: failed

## MTEEQFSSYHPPLPPTTEEDRFSWLRLLRSRRVGPTTFRRLMHEHGTAQNALAALPEVARAAGVEGYEICPPGVVEAELKAAKAAKARLLCLGDADYPSHLAGISDAPPLLWLLGDPALLRRPMIALVGARNASSLGTRMARALAQDLGTAGFVVVSGLARGIDTAAHLAALPSGTIAVMAGGVDTVYPAENTHLAADIAQHGLRLSEQPMRLTPQARHFPRRNRIISGLAQAVVVVEAAAKSGSLITARDALDQGREVLAVPGHPFDARAAGCNMLIRDGAHLVRNAEDVITALPALTAPQPQPDLCDLMQQPAPPAKRSLRETVALHSLILDRLGPSPVAEDQLIRDLAASPGEVAPVLVDLELEGRINRQAGGLLSRVN
  protein production: failed

## MKHAKDIKVHKFNGPVKNDGKISVLVLGADKASGGKSRSDSIMVVQYDYIHKKMKMMSVMRDIYAEIPGYQNYKINAAYSLGGPELLRKTLNKNLGINPEYYAVIDFTGFEKMIDELEPNGVPMDVEKDMSENIGVSLKKGHHRLNGKELLGYARFRHDEEGDFGRVRRQQQVMQTLKKELVTPSSVIKLPKVAGILRGYINTSMPNSAIFQTGISYGIRGDKNVESLTVPINNSYQNINTNNDGSALEIDKEKNKKAVKEFLNNLEHHHHHH
  protein production: failed

## MSKIEIFEAAGCCATSSVVVSDEAVKWNASAEWAKKHGVNIQRYSLAKNPQQFLNTPVIRAFLNTSGMESLPATLLDGQLVMAGKLPSREDIARWAGISLTQDWNEDSTQPRCCSIPRMP
  protein production: failed
